Experimental data from paper PMC4793595.

Molecular target: T1, MS2 coat protein (bacteriophage MS2), P03612
T1 chain: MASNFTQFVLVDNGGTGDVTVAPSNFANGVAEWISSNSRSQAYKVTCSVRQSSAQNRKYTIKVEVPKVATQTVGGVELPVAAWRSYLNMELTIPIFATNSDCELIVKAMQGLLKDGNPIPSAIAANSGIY
Assay: native MS + AUC
Details: remark: other sources report otherwise

B1: MS2 coat protein, P03612 1-130 (natural protein)
chain: T1 chain
B1 showed a stoichiometry N of 2.
